Data from article PMC9132103.

Experiments:
[1] = molecular target: human IL-10Rβ extracellular domain (residues 20-220), biotinylated, from Hi5 cells (human) (UniProt Q08334)
[2] = molecular target: Clone 5.1 (super-10), affinity-matured mono-IL-10 clone (UniProt P22301)
[3] = molecular target: Clone 5.1 (super-10) in the presence of IL-10Rα ECD (UniProt P22301)

Chain of human IL-10Rβ extracellular domain (residues 20-220), biotinylated, from Hi5 cells (Q08334 20-220): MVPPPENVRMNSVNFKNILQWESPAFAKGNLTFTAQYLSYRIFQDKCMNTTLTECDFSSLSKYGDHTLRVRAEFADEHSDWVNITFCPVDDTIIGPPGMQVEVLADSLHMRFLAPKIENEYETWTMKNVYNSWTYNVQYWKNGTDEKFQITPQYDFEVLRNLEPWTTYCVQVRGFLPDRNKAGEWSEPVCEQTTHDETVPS
Chain of human IL-10Rβ extracellular domain (residues 20-220), biotinylated, from Hi5 cells (human) (Q08334 20-220): as above

| Substance | phospho-STAT3 by flow cytometry, YT-1 cells, relative to WT IL-10 [1] | Kd [2] | Kd [3] |
| --- | --- | --- | --- |
| IL-10 D25A/E96A (10-DE) (from UniProt P22301 19-178) (ligand) | 50% |  |  |
| IL-10 D25K (from UniProt P22301 19-178) (ligand) | 50% |  |  |
| human IL-10Rβ extracellular domain (residues 20-220), biotinylated, from Hi5 cells (from UniProt Q08334 20-220) (receptor) |  | 0.07 µM | 0.03 µM |
